Measurements: paper PMC3392456
Read-outs that look alike come from different tables or passages of the source.

Tests used:
[1] = molecular target: S. pombe Mre11 catalytic domain, SpMre11_(15–413) (S. pombe); experiment: crystal structure
[2] = molecular target: S. pombe Mre11 catalytic domain, SpMre11_(15–413) (S. pombe); experiment: crystal structure; remark: listed apart in the source
[3] = molecular target: SpMre11^cd R85A (S. pombe)
[4] = molecular target: S. pombe Mre11 catalytic domain, SpMre11_(15–413) (S. pombe); experiment: crystal structure; remark: listed apart in the source

Q: For “S. pombe Mre11 catalytic domain, SpMre11_(15–413) (domain or fragment)”, which stoichiometry N [1] is on record?
A: Its stoichiometry N is 2.

Q: And the stoichiometry N [2]?
A: The stoichiometry N was 2.

Q: Which stoichiometry N [3] does the source give for SpMre11^cd R85A (domain or fragment) here?
A: The stoichiometry N was 2.

B1: S. pombe Nbs1 Mre11 interacting region, residues 474–531 (domain or fragment)
chain: ESEDDKAFEENRRLRNLGSVEYIRIMSSEKSNANSRHTSKYYSGRKNFKKFQKKASQK
Q: Which stoichiometry N (Nbs1 per Mre11 (2:2)) [4] does the source give for B1 here?
A: The stoichiometry N (Nbs1 per Mre11 (2:2)) was 1.
